In patent publication US20160311913A1 (Amgen, published 2016):

Target: human CGRP receptor (human, UniProt Q16602 23-461; O60894 27-148)
Test: cell-based or functional assay

human CGRP receptor, sequence (Q16602 23-461 limits assumed, chain 1 of 2): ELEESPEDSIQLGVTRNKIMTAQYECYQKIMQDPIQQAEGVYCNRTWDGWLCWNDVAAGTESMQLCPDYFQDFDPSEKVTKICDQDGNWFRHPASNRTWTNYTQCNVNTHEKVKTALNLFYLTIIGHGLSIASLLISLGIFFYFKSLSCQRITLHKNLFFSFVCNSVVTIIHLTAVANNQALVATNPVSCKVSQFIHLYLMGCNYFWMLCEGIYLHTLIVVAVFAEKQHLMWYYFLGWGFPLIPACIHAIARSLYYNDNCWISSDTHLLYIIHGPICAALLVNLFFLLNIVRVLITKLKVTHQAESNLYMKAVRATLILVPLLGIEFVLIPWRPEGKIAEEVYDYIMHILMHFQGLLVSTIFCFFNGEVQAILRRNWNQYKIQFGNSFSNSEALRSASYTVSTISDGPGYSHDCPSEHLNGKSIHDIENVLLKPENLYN
human CGRP receptor, sequence (O60894 27-148 limits assumed, chain 2 of 2): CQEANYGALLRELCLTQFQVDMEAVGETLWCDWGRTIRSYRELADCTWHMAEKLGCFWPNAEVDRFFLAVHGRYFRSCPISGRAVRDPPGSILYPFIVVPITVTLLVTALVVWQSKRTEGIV

serum AMG 334 concentration associated with the half maximal effect (EC50) on capsaicin-induced DBF: 0.286 µg/mL
serum AMG 334 concentration for 50% of maximal inhibition of capsaicin-induced dermal blood flow (EC50): 0.218 µg/mL
B1: AMG 334 (antibody, human IgG2, lambda, V domains shown)
VH: QVQLVESGGGVVQPGRSLRLSCAASGFTFSSFGMHWVRQAPGKGLEWVAVISFDGSIKYSVDSVKGRFTISRDNSKNTLFLQMNSLRAEDTAVYYCARDRLNYYDSSGYYHYKYYGMAVWGQGTTVTVSS
VL: QSVLTQPPSVSAAPGQKVTISCSGSSSNIGNNYVSWYQQLPGTAPKLLIYDNNKRPSGIPDRFSGSKSGTSTTLGITGLQTGDEADYYCGTWDSRLSAVVFGGGTKLTVLG
